Values quoted from earlier work, collected in article PMC3144249.

Assays:
[1] = target: arrestin-1 dimer (Mus musculus) (UniProt P20443)
[2] = target: arrestin-1 (Mus musculus) (UniProt P20443)

| Kd [1] [µM] | Kd [2] [µM] | Substance |
| --- | --- | --- |
| 63.1 |  | arrestin-1 dimer (from UniProt P20443) |
|  | 57.5 | arrestin-1 (from UniProt P20443) |
